{"source": "patent US20080166749A1", "about": "“Fluorescent Protein Sensors of Post-Translational Modifications” (INVITROGEN CORPORATION, priority 1998, published 2008)", "molecules": {"B1": {"name": "Myelin Basic Protein: a well-characterized substrate of Erk kinase (protein, UniProt P02687 1-169, looked up)", "Myelin basic protein": "AAQKRPSQRSKYLASASTMDHARHGFLPRHRDTGILDSLGRFFGSDRGAPKRGSGKDGHHAARTTHYGSLPQKAQGHRPQDENPVVHFFKNIVTPRTPPPSQGKGRGLSLSRFSWGAEGQKPGFGYGGRASDYKSAHKGLKGHDAQGTLSKIFKLGGRDSRSGSPMARR"}}, "system": "activated recombinant MAP kinase", "assay": "Phosphorylation of GFP Erk sensors by MAP kinase, ^32P incorporation", "type": "biochemical", "settings": "10 μM substrate, 100 ng MAP kinase, 30 minutes at 30° C.; mean ± standard deviation of triplicates", "source_text": "Experiments were terminated and samples processed as described previously in subsection D.4. Results presented in Table X represent means of triplicate determinations ±standard deviations of ^32P-incorporation in washed pellets as described earlier."}
{"molecule": "B1", "values": [{"measurement": "^32P-Incorporation (CPM)", "value": "33361 ± 477", "unit": "CPM"}]}
